{"source": "patent US20160039904A1", "about": "(UNITED STATES OF AMERICA AS REPRESENTED BY THE SECRETARY …, published 2016)", "key": {"HIV-1 gp140Con-s": {"target": "HIV-1 gp140Con-s (HIV-1)"}, "HIV-1 gp140MS": {"target": "HIV-1 gp140MS (HIV-1)"}, "HIV-1 gp140CH12.0544.2": {"target": "HIV-1 gp140CH12.0544.2 (HIV-1)"}}}
{"binder": "mD1.22 (receptor) not shown", "values": [{"measurement": "Kd", "setting": "HIV-1 gp140Con-s", "result": 4.4, "unit": "nM"}, {"measurement": "Kd", "setting": "HIV-1 gp140MS", "result": 0.19, "unit": "nM"}, {"measurement": "Kd", "setting": "HIV-1 gp140CH12.0544.2", "result": 0.17, "unit": "nM"}]}
